The conditions of data set [1]: at one hour. As for the experimental part: At the indicated times aliquots were withdrawn and the amount of intact parent peptide was determined as the area under the curve (AUC) of the A214 (absorbance at 214 nanometers) chromatogram;
For data set [2], the system named is trypsin. The settings on record: 3% trypsin, after one hour.
Data set [3] deals with trypsin. Nature of the data set: in vitro. The conditions noted are these: 1% trypsin.

As for `CC[C@H](C)[C@@H]1NC(=O)[C@H](Cc2ccc(O)cc2)NC(=O)CNC(=O)[C@H](C(C)C)NC(=O)[C@H](C(C)C)NC(=O)[C@@H](NC(=O)[C@H](CC(N)=O)NC(=O)[C@@H]2CSSC[C@@H]3NC(=O)[C@H](Cc4ccc(O)cc4)NC(=O)CNC(=O)[C@H](CC(=O)O)NC(=O)[C@H](Cc4c[nH]cn4)NC(=O)[C@H](CO)NC(=O)[C@H](CC(C)C)NC(=O)[C@@H]4CCCN4C(=O)[C@@H](NC(=O)[C@H](CCC(=O)O)NC(=O)[C@H](CO)NC(=O)[C@H](CC(=O)O)NC(=O)[C@H](CO)NC(=O)[C@@H](N)CC(N)=O)CSSC[C@H](NC(=O)[C@H](C(C)C)NC(=O)CNC(=O)[C@H](CC(=O)O)NC(=O)[C@H](Cc4c[nH]cn4)NC(=O)[C@H](CC(C)C)NC3=O)C(=O)N[C@@H](CCSC)C(=O)N[C@@H](Cc3ccc(O)cc3)C(=O)N[C@@H]([C@@H](C)CC)C(=O)N[C@@H](CCC(=O)O)C(=O)N[C@@H](C)C(=O)N[C@@H](CC(C)C)C(=O)N[C@@H](CC(=O)O)C(=O)N[C@@H](CCCCN)C(=O)N[C@@H](Cc3ccc(O)cc3)C(=O)N[C@@H](C)C(=O)N2)CSSC[C@@H](C(=O)N[C@@H](CCC(N)=O)C(=O)N[C@@H](Cc2ccc(O)cc2)C(=O)N[C@@H](CCCNC(=N)N)C(=O)N[C@@H](CC(=O)O)C(=O)N[C@@H](CC(C)C)C(=O)N[C@@H](CCCCN)C(=O)N[C@@H](Cc2c[nH]c3ccccc23)C(=O)N[C@@H](Cc2c[nH]c3ccccc23)C(=O)N[C@@H](CCC(=O)O)C(=O)N[C@@H](CC(C)C)C(=O)N[C@@H](CCCNC(=N)N)C(=O)O)NC(=O)[C@H](CCCNC(=N)N)NC(=O)[C@H](CCC(=O)O)NC(=O)CNC1=O` [hEGF1-53], in data set [1], the “degradation in gastric fluid” value is listed as “approaching almost complete degradation”. Besides, the degradation in trypsin with trypsin [2] is reported as 90-100%. Besides, in the data set with trypsin [3], the metabolised at 1 h was about 50%.
